Assay results reported in patent publication US20140179896A1 (published 2014).

Experiments:
[1] = target: T1, mouse vascular endothelial growth factor receptor-2 Fc chimera (Flk-1-Fc) (mouse, UniProt P35918 20-762); test: clones from the 159Q(8)L library; binding per FIG. 4
T1 construct: Purchased from R&D Systems; also called mouse VEGF-R2; not shown: Fc part of the purchased chimera
Description: (§1) To prepare ³⁵S-labeled binding proteins for analysis, mRNA was prepared as described above for RNA-protein fusion production but the linker ligation step was omitted. The mRNA was expressed using rabbit reticulocyte lysate translation kit (Ambion) in the presence of ³⁵S-labeled Met at 30° C. for 1 hour. Expressed protein was purified on M2-agarose Flag beads (Sigma) as described above. This procedure produced the encoded protein without the nucleic acid tail. In a direct binding assay, VEGF-R2-Fc fusions in concentrations ranging from 0 to 200 nM were added to a constant concentration of the purified protein (0.2 or 0.5 nM) and incubated at 30° C. for 1 hour in buffer B. The receptor-binder complexes were captured using Protein A magnetic beads for another 10 minutes at room temperature using a Kingfisher™ The beads were washed with six reaction volumes of buffer B. The protein was eluted from the beads with 100 μL of 0.1 M KOH. […] of the reaction mixture and elution were dried onto a LumaPlate-96 (Packard) and the amount of ³⁵S on the plate was measured using a TopCount NXT instrument (Packard). The amount of fibronectin-based scaffold protein bound to the target was estimated as a percent of radioactivity eluted from Protein A magnetic beads compare to radioactivity in the reaction mixture. Nonspecific binding of fibronectin-based scaffold proteins to the beads was determined by measuring binding in the absence of KDR-Fc and represented less than 1-2% of the input. Specific binding was obtained through subtraction of nonspecific binding from total binding. Data was analyzed using the GraphPad Prizm software (GraphPad Software, Inc, San Diego, Calif.), fitted using a one site, non-linear binding equation.

[2] = target: T2, human vascular endothelial growth factor receptor-2 Fc chimera (KDR-Fc) (human, UniProt P35968 20-764); test: radioactive equilibrium binding (assay not given)
T2 construct: range 1-764; also called human VEGFR-2; hKDR; not shown: human IgG1 Fc
T2 sequence (P35968 20-764 limits assumed, change not shown, form in doubt): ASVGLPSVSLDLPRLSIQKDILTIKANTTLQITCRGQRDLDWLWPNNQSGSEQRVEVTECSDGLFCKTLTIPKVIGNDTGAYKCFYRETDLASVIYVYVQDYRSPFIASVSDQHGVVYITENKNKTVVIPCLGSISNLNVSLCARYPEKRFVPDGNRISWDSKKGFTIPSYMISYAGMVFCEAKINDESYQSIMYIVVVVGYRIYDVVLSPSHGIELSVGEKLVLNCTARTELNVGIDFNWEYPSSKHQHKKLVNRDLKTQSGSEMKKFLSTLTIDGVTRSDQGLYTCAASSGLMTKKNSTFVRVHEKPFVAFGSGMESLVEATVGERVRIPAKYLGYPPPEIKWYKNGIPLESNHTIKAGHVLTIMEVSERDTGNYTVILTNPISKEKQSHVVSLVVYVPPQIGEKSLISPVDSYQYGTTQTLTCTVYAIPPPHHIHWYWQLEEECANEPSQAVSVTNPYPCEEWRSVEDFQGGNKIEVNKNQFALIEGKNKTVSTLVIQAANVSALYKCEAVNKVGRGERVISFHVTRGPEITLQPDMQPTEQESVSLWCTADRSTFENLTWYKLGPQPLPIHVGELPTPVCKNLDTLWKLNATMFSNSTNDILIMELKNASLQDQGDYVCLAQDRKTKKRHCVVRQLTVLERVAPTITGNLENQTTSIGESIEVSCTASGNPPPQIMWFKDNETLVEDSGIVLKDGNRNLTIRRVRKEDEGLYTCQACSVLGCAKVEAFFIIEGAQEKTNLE

[3] = target: T1, mouse vascular endothelial growth …; test: radioactive equilibrium binding (assay not given)
[4] = target: T2, human vascular endothelial growth …; test: binding to 1 nM KDR-Fc, % of input; radioactive equilibrium binding (assay not given)
Procedure, shortened: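 Receptor-Fc fusions titrated from 0 to 200 nM against a fixed 0.2 or 0.5 nM of ³⁵S-labeled scaffold protein for 1 h at 30° C. Protein A bead pull-down followed by scintillation counting of eluate versus reaction mixture. Specific binding is total minus no-receptor binding, fitted to a one-site nonlinear equation.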

[5] = target: T1, mouse vascular endothelial growth …; test: binding to 1 nM Flk-1-Fc, % of input; radioactive equilibrium binding (assay not given)
Description: as §1

T1 sequence (P35918 20-762, change not shown): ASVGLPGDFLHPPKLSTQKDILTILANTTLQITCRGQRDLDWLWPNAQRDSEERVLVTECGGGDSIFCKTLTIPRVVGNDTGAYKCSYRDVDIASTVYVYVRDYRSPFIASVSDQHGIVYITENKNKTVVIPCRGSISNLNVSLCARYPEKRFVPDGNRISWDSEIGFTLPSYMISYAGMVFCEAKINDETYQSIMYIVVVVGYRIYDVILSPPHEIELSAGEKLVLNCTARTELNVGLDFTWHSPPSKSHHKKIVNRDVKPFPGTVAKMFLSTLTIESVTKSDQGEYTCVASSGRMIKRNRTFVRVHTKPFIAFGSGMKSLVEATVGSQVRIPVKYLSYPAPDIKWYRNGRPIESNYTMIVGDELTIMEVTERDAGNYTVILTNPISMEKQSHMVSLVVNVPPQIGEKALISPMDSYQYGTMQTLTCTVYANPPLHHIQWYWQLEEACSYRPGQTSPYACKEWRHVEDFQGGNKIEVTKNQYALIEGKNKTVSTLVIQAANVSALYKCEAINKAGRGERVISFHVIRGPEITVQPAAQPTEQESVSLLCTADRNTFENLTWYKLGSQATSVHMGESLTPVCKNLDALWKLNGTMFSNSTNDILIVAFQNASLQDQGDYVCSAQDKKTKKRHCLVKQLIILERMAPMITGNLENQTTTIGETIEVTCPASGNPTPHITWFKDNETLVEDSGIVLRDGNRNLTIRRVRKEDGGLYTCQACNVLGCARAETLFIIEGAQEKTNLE

Row | binding result [1] | Kd [2] [nM] | Kd [3] [nM] | Binding to 1 nM KDR, % [4] [%] | Binding to 1 nM FLK, % [5] [%] | Binder
1 | binds | – | – | – | – | M3 (designed binder, 10Fn3 clone with WT N-terminus; Tags not included) VSDVPRDLEVVAATPTSLLISWRHPHFPTRYYRITYGETGGNSPVQEFTVPLQPPAATISGLKPGVDYTITGYAVTKERNGRELFTPISINYRT
2 | binds | – | – | – | – | M2 (designed binder, 10Fn3 clone with WT N-terminus; Tags not included) VSDVPRDLEVVAATPTSLLISWRHPHFPTRYYRITYGETGGNSPVQEFTVPLQPPAATISGLKPGVDYTITGYAVTWERNGRELFTPISINYRT
3 | binds | – | – | – | – | M1 (designed binder, 10Fn3 clone with WT N-terminus; Tags not included) VSDVPRDLEVVAATPTSLLISWRHPHFPTRYYRITYGETGGNSPVQEFTVPLQPTVATISGLKPGVDYTITGYAVTLERNDRELFTPISINYRT
4 | binds | – | – | – | – | M6 (designed binder, 10Fn3 clone with WT N-terminus; Tags not included) VSDVPRDLEVVAATPTSLLISWRHPHFPTHYYRITYGETGGNSPVQEFTVPLQPPAATISGLKPGVDYTITGYAVTLERDGRELFTPISINYRT
5 | binds | – | – | – | – | M8 (designed binder, 10Fn3 clone with WT N-terminus; Tags not included) VSDVPRDLEVVAATPTSLLISWRHPHFPTHYYRITYGETGGNSPVQEFTVPLQPPAATISGLKPGVDYTITGYAVTKERSGRELFTPISINYRT
6 | binds | – | – | – | – | M4 (designed binder, 10Fn3 clone with WT N-terminus; Tags not included) VSDVPRDLEVVAATPTSLLISWRHPHFPTHYYRITYGETGGNSPVQEFTVPLQPPAATISGLKPGVDYTITGYAVTTERTGRELFTPISINYRT
7 | binds | – | – | – | – | M7 (designed binder, 10Fn3 clone with WT N-terminus; Tags not included) VSDVPRDLEVVAATPTSLLISWRHPHFPTRYYRITYGETGGNSPVQEFTVPLQPTTATISGLKPGVDYTITGYAVTWERNGRELFTPISINYRT
8 | – | 0.96 | 5.4 | 37 | 14 | E3 (designed binder, Del 1-8 10Fn3 clone; Flag tag of the radioactive-assay form not included) EVVAATPTSLLISWRHPHFPTRYYRITYGETGGNSPVQEFTVPLQPPTATISGLKPGVDYTITGYAVTDGRNDRKLMVPISINYRT
9 | – | 2.37 | 1.4 | 24 | 34 | E9 (designed binder, Del 1-8 10Fn3 clone; Flag tag of the radioactive-assay form not included) EVVAATPTSLLISWRHPHFPTRYYRITYGETGGNSPVQEFTVPLQPPTATISGLKPGVDYTITGYAVTEERNGRTLRTPISINYRT
10 | – | 1.63 | 2.1 | 19 | 21 | E28 (designed binder, Del 1-8 10Fn3 clone; Flag tag of the radioactive-assay form not included) EVVAATPTSLLISWRHPHFPTRYYRITYGETGGNSPVQEFTVPLQPPTATISGLKPGVDYTITGYAVTLERNGRELMVPISINYRT
